Experimental data published in patent US20240052044A1 (VIB VZW, published 2024).
Residue numbers refer to the chain shown, from its start. Numbers in names are those of the source.

B1: VHH-123 (VHH)
VHH: DVQLVESGGGLVQPGGSLRLSCTASGRTFTNYKSNYKMAWFRQAPGKARAFVGRTDWTGSSAIIANSVKGRFTISRDNAKNTVYLQMNSLRPEDTAVYYCAAGTTIGQYTYWGQGTLVTVSS
notes: also called VHH-69(E1D, N55S, D65G); not shown: C-terminal His6 tag (no FLAG3 tag)
B2: VHH-124 (VHH)
VHH: B1 VHH with S60K
notes: also called VHH-69(E1D, N55K, D65G); not shown: C-terminal His6 tag (no FLAG3 tag)

Target: T1, human CCR8 (human, UniProt P51685 1-355)
T1 construct: On stably transfected HEK293 cells or CHO-K1 cells; also called hCCR8
Assay: competition flow cytometry on hCCR8 HEK293 cells; competitor FLAG3-tagged VHH-69

T1 sequence (P51685 whole entry): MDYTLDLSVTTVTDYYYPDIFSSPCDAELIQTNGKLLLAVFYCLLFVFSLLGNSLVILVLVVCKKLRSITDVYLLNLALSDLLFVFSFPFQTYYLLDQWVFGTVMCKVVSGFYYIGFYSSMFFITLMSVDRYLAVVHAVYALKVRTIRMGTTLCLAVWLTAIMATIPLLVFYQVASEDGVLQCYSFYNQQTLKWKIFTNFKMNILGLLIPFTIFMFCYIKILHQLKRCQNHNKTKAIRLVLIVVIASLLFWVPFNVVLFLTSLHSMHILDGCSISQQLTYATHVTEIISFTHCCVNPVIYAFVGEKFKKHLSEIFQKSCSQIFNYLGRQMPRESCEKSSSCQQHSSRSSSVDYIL

Binder | IC50 [nM] | fold more potent competition IC50 against the control VHH-69(E1D) [fold]
B1 | 0.71 | 
B2 | 0.25 | 2
